Assay [1] addresses human IgG (human). The experiment in a line: BLI (Octet), His-tagged gEgI immobilised on Ni-NTA sensor, response to human IgG. On the technique in general: Biolayer interferometry detects binding as a change in optical thickness at a sensor tip.
Assay [2] deals with Recombinant HSV2 gEgI protein (coating antigen of the competitive ELISA, produced in ExpiHEK293F) (HSV2 strain SD90e) (UniProt P89475). The experiment in a line: ED50 of the competitive ELISA (competitor: human IgG); GM of N=4 mice, 21PIII (D63); bar below the positivity threshold (1/10), 5 being the first dilution/2.
The target of assay [3] is Recombinant HSV1 gEgI protein (coating antigen of the competitive ELISA, produced in ExpiCHO) (HSV1 strain KOS321; HSV1 strain 17). Nature of the assay: ED50 of the competitive ELISA (competitor: human IgG); GM of N=5 mice, 21PII (D49); 5 is the value given to negative samples (first dilution/2), below the positivity threshold (1/10). On the technique in general: In an ELISA, binding on a coated surface is turned into a signal by an enzyme label.

The target is the same in assay [4]. Nature of the assay: ED50 of the competitive ELISA (competitor: human IgG); GM of N=4 mice, 14PIII (D42); 5 is the value given to negative samples (first dilution/2), below the positivity threshold (1/10).
The target in assay [5] is Recombinant HSV2 gEgI protein (coating antigen of the competitive ELISA, produced in ExpiHEK293F) (HSV2 strain SD90e) (UniProt P89475). The assay is described as above.
Assay [6] has as its target human IgG (human). Nature of the assay: BLI (Octet), gEgI on Ni-NTA sensor, hIgG in solution.
Assay [7] deals with human IgG (human). Described as above. This is another data set of the same source.
For assay [8], the target named is human IgG (human). The experiment in a line: BLI Octet, construct on Ni-NTA sensor, hIgG in solution.

Read-outs that look alike come from different tables or passages of the source.

In the case of “PN97 (HSV2-gE_P318G_Δ319-320_gI) (from UniProt P89475 21-416; P06764 21-256) (receptor)”, the hIgG binding response in assay [1] is 0.146 nm. Regarding NaCl150mM, the ED50 titer (geometric mean) (reciprocal dilution) in assay [2], in assay [3] and in assay [5] was 5 in each case. Moreover, the ED50 (geometric mean) (reciprocal dilution) in assay [4] was 5.

The Kd is the concentration at which binding is half-saturated. Lower therefore signals tighter binding. One may read the koff as the first-order rate constant of dissociation. What is called kon is the rate constant with which the complex forms. In assay [6], “HSV2-gE_P318R S338G_gI (from UniProt P89475 21-416; P06764 21-256) (receptor)” gave a Kd of under 1 pM, a Response of 0.177 nm, a koff of under 1e-07 s⁻¹ and a kon of 8690 M⁻¹ s⁻¹. For the same substance, the Kd in assay [7] came out at 0.001 nM. Take “PN100 (HSV2-gE_P317R-P318G_Δ319-320_gI) (from UniProt P89475 21-416; P06764 21-256) (receptor)”: the hIgG binding response in assay [1] stood at 0.0877 nm. In assay [1], “PN95 (HSV2-gE_P317G-P318G_Δ319-320_gI) (from UniProt P89475 21-416; P06764 21-256) (receptor)” registered a hIgG binding response of 0.0748 nm.

In the case of “PN101 (HSV2-gE_P317G-P318K_Δ319-320_gI) (from UniProt P89475 21-416; P06764 21-256) (receptor)”, the hIgG binding response in assay [1] amounted to 0.0868 nm. On the same count and under the same terms, then “PN94 (HSV2-gE_Δ319-320_gI) (from UniProt P89475 21-416; P06764 21-256) (receptor)”, with 0.115 nm; and “PN92 (HSV2-gE_P317R-R320D_gI) (from UniProt P89475 21-416; P06764 21-256) (receptor)”, with 0.056 nm.

With “PN91 (HSV2-gE_P317R-P319D_gI) (from UniProt P89475 21-416; P06764 21-256) (receptor)”, the hIgG binding response in assay [1] came to 0.0658 nm. Consider “PN99 (HSV2-gE_P317R-P318E_Δ319-320_gI) (from UniProt P89475 21-416; P06764 21-256) (receptor)”, for which the hIgG binding response in assay [1] came out at 0.0795 nm. Still for that read-out and setting: then “PN93 (HSV2-gE_P319D-R320D_gI) (from UniProt P89475 21-416; P06764 21-256) (receptor)”, with 0.0658 nm; and “PN96 (HSV2-gE_P318E_Δ319-320_gI) (from UniProt P89475 21-416; P06764 21-256) (receptor)”, with 0.0619 nm. With “HSV2-gE_R320E_gI (from UniProt P89475 21-416; P06764 21-256) (receptor)”, in assay [7], the Kd came out at 4950 nM and the Response stood at 0.223 nm. In assay [8], this substance showed a Kd of 4.95 µM, a Response (nm) of 0.223 nm, a koff of 0.00455 s⁻¹ and a kon of 919 M⁻¹ s⁻¹. In assay [1], “PN98 (HSV2-gE_P318K_Δ319-320_gI) (from UniProt P89475 21-416; P06764 21-256) (receptor)” came in with a hIgG binding response of 0.135 nm.

In assay [1], “PN90 (HSV2-gE_gI) (from UniProt P89475 21-416; P06764 21-256) (receptor)” registered a hIgG binding response of 0.623 nm.

(Values after patent US20220273789A1.)
